Source: the supplement of paper PMC11136658

System: peptide library, one residue held at a place counted from the Y acceptor
Test: relative phosphorylation of the sub-library (ratio to the mean residue at this position); higher = residue favoured
In short: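 Within 384-well plates, purified recombinant kinases phosphorylated biotinylated Tyr-centred peptide library mixtures over 90 min using 50 μM ATP spiked with γ-32P-ATP; each mixture fixed one residue at one position from −5 to +5. Streptavidin membrane capture, rinsing, phosphorimaging and ImageQuant gave the intensities. These were normalized per position to the sum of the 18 randomized residues (16 for the Ser/Thr-free library) and multiplied by that number.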

Chain of INSR, construct: aa1110-end, human (P06213 1110-1382, looked up): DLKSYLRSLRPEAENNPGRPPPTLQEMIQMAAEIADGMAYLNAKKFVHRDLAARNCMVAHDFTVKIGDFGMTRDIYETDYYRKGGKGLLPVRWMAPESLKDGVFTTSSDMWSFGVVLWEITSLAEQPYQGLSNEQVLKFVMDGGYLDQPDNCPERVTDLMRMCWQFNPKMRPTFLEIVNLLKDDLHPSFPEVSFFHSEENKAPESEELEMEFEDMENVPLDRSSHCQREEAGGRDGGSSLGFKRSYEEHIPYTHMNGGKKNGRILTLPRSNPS
Chain of JAK2, construct: aa809-end plus 9aa C-term extension from Gateway cloning, human (O60674 809-1132, looked up): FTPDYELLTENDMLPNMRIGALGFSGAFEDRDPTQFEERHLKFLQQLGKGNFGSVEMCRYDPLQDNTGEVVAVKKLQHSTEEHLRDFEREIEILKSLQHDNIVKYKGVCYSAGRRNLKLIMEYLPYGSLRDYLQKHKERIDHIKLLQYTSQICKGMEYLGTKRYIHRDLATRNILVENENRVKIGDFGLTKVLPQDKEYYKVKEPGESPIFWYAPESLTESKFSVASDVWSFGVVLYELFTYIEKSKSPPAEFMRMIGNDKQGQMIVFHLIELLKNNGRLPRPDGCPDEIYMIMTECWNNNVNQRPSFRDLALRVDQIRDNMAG
Chain of ITK, construct: aa352-end, human (Q08881 352-620, looked up): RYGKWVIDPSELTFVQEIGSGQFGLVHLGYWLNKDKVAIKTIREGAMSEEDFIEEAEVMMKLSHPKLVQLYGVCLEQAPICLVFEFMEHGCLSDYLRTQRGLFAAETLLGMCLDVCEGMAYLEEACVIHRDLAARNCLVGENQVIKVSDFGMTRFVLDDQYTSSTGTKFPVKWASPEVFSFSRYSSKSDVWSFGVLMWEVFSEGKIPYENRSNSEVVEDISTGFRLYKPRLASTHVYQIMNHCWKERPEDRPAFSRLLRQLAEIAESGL

INSR, construct: aa1110-end, human (from UniProt P06213)
relative phosphorylation
Conditions	at +1	at +2	at +3	at +4	at +5	at -1	at -2	at -3	at -4	at -5
A fixed	1.55	0.678	0.593	0.95	0.917	1.09	1.09	0.925	1.09	1.07
D fixed	0.383	0.584	0.264	1.04	0.792	2.65	1.14	1.34	1.3	1.14
E fixed	0.627	1.31	0.234	0.976	0.731	1.14	1.26	1.48	1.31	0.983
F fixed	1.41	1.13	1.62	1.02	1.56	0.696	0.621	0.912	1.03	0.834
G fixed	0.731	0.419	0.545	0.809	0.858	0.554	1.24	0.872	1.36	1.23
H fixed	1.67	0.915	1.47	1.16	1.17	1.16	0.95	1.11	0.965	0.975
I fixed	1.21	1.16	1.92	0.902	0.978	1.04	0.87	0.616	0.817	0.935
K fixed	0.275	0.602	0.475	0.951	0.919	0.27	0.8	0.861	0.835	1.11
L fixed	0.986	1.35	1.61	0.841	1.14	0.981	0.957	0.867	0.879	0.913
M fixed	2.41	1.53	1.74	1.16	1.08	0.789	0.743	0.929	0.804	0.976
N fixed	0.312	0.941	0.347	0.762	0.813	2.16	1.25	1.51	0.939	1.22
P fixed	0.317	0.706	0.421	0.704	1.05	1.04	1.29	0.905	1.17	0.956
Q fixed	0.805	0.811	0.46	1.19	0.806	0.747	1.22	1.06	1.22	1.1
R fixed	0.227	0.868	0.706	0.953	1.02	0.266	0.831	0.913	0.913	1.13
S fixed	0.926	0.804	0.534	1.07	1.04	0.901	1.18	1.09	0.814	0.896
T fixed	0.946	0.781	0.673	0.843	0.84	0.97	1.08	0.941	0.731	0.828
V fixed	1.45	1.08	1.13	0.968	0.937	0.989	0.796	0.698	0.746	0.798
W fixed	1.76	2.34	3.26	1.69	1.35	0.558	0.684	0.978	1.08	0.902
pThr fixed	1.28	0.717	0.229	0.55	0.612	1.28	1.01	1.11	1.09	0.769
pTyr fixed	1.36	2.45	0.487	1.48	0.585	4.11	1.68	1.51	1.28	0.991

ITK, construct: aa352-end, human (from UniProt Q08881)
relative phosphorylation
Conditions	at +1	at +2	at +3	at +4	at +5	at -1	at -2	at -3	at -4	at -5
A fixed	1.81	1.06	0.772	0.857	1.11	0.551	1.01	0.947	1.03	0.997
D fixed	0.732	0.669	0.309	0.622	0.886	0.754	1.41	1.36	1.33	1.21
E fixed	1.51	1.13	0.274	0.821	0.792	0.709	1.51	1.52	1.38	1.08
F fixed	0.572	1.07	1.85	0.763	0.705	1.81	0.627	0.793	0.672	0.935
G fixed	1.08	0.639	0.788	1.26	1.1	0.384	1.43	1.21	1.17	1.13
H fixed	0.606	0.801	2.11	0.96	0.926	0.991	0.812	1.03	1.01	1.13
I fixed	1.51	1.12	0.913	0.996	0.332	2.5	0.548	0.511	0.759	0.718
K fixed	0.337	0.697	0.722	1.34	1.39	0.291	0.703	0.694	0.953	1.06
L fixed	0.606	0.908	0.832	0.771	0.72	2.16	0.969	0.666	0.743	0.757
M fixed	1.17	0.976	1.06	1.04	1.24	1.22	0.645	0.752	0.816	0.896
N fixed	0.361	1.06	0.757	0.846	1.06	0.585	1.33	1.39	1.15	1.24
P fixed	0.172	0.791	0.868	1.08	1.49	0.48	1.43	1.27	1.15	1.07
Q fixed	1.03	0.901	0.885	1.19	1.15	0.648	1.24	1.16	1.39	1.24
R fixed	0.432	0.987	1.41	1.32	1.55	0.308	0.64	0.774	1.05	1.14
S fixed	1.4	1.22	0.997	1.07	1.14	0.489	1.28	1.31	1.05	1.01
T fixed	1.36	1.45	0.767	1.12	1.01	1.19	1.05	1.1	0.807	0.902
V fixed	2.08	1.24	1.04	1.16	0.772	1.57	0.764	0.752	0.84	0.797
W fixed	1.23	1.27	1.65	0.785	0.634	1.36	0.605	0.759	0.706	0.692
pThr fixed	2.18	2.7	0.354	0.462	0.524	1.68	1.08	0.871	1.02	0.887
pTyr fixed	1.11	3.73	0.518	0.754	0.65	1.48	1.02	1.2	1.23	2.07

JAK2, construct: aa809-end plus 9aa C-term extension from Gateway cloning, human (from UniProt O60674)
relative phosphorylation
Conditions	at +1	at +2	at +3	at +4	at +5	at -1	at -2	at -3	at -4	at -5
A fixed	1.07	0.945	0.889	0.971	1.11	1.13	0.982	1.02	1.07	1.08
D fixed	0.252	0.644	0.411	0.858	0.792	1.32	0.91	1	1.04	0.999
E fixed	0.45	0.78	0.33	0.934	0.764	1.18	0.98	1.01	1.26	0.926
F fixed	1.63	1.08	1.42	1.12	1.02	1.11	0.961	1.05	1.09	1.07
G fixed	0.48	0.786	0.788	1.13	1.25	0.999	1.14	1.18	1.36	1.1
H fixed	1.42	0.785	1.12	1.05	1.04	1.05	1.07	0.901	0.929	0.919
I fixed	1.97	0.961	1.94	0.87	0.922	1.26	1.04	0.953	0.963	1.06
K fixed	0.447	1.23	0.52	1.11	0.962	0.659	0.998	0.825	0.861	0.903
L fixed	1.55	1.08	1.43	0.892	0.927	1.11	1.05	1.03	1.05	1.07
M fixed	1.35	1	1.25	1.15	0.946	0.87	0.794	0.901	0.997	1.05
N fixed	0.45	0.982	0.681	0.846	0.871	0.762	0.981	1.01	0.849	1.02
P fixed	0.566	1.03	1.24	1.04	1.64	1.16	1.13	1.45	1.16	1.22
Q fixed	0.9	0.975	0.667	1.12	0.867	0.745	0.954	0.824	1.11	1.01
R fixed	0.623	1.2	0.686	1.09	0.931	0.616	0.984	0.757	0.886	0.877
S fixed	0.814	1.02	0.893	0.966	1.1	0.987	1.05	1.02	0.772	0.927
T fixed	1.09	1.07	1.17	0.909	1.06	0.989	0.98	0.976	0.716	0.824
V fixed	1.76	1.1	1.35	0.915	0.886	1.14	0.983	1.03	0.836	0.988
W fixed	1.18	1.32	1.23	1.04	0.914	0.909	1	1.05	1.05	0.952
pThr fixed	0.332	0.537	0.205	0.53	0.543	1.1	0.744	0.944	1	0.905
pTyr fixed	0.814	0.927	0.422	0.803	0.643	1.59	0.983	1.35	1.4	1.15
